According to PMC9062193:

B1: YFL-7 (Lac-A6), truncated (ssDNA)
DNA: GCAGGACACCGTAACGGGTGCACACTCTTATTTTTACACGAGCCAAAAATATGTCCTGC
B2: YFL-5 (Lac-A3, Lac8-2), truncated (ssDNA)
DNA: CAGGCAGGACACCGTAACCGGGCATTTGCTCTCAATTTAGTCTCAAATTGTGGCCTGCCTG
B3: YFL-1 (Lac-6a), truncated (ssDNA)
DNA: AGGCAGGACACCGTAACCGGTGCATCTATGGCTACTAGCTTTTCCTGCCT
B4: YFL-6 (Lac-A4), truncated (ssDNA)
DNA: AGGCAGGACACCGTAACCGGTGCATCTATGGCTACTAGCTCTTCCTGCCT
B5: YFL-4 (Lac-A1, Lac1-4), truncated (ssDNA)
DNA: GCAGGACACCGTAACACGGGCTGATGCTCTCTTTATTTTACCTAAATAAAGTGTCCTGC

What follows are binders tested against lactoferrin (Lac) (bovine? ("from bovine milk"), UniProt P24627 20-708) (assay: protein microarray).
Sequence of lactoferrin (Lac) (P24627 20-708): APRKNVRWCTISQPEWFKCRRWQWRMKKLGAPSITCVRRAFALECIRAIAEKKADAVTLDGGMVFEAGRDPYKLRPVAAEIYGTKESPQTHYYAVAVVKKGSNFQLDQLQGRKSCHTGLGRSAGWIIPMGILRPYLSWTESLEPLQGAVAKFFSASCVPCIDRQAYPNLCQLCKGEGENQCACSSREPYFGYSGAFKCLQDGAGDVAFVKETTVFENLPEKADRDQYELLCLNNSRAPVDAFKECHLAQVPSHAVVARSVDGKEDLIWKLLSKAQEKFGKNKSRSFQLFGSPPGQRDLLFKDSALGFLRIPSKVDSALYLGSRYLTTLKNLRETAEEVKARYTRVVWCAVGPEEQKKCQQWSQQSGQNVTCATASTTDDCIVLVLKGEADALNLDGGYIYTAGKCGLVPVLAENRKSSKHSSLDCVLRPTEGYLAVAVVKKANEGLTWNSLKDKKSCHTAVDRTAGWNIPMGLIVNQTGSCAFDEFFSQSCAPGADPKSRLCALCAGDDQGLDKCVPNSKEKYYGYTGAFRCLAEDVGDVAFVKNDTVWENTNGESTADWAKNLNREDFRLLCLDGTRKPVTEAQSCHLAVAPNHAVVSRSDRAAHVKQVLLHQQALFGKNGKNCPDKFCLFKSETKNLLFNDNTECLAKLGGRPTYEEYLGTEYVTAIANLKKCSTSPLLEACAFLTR

Q: For B1, which binding signal is on record?
A: 2490 fluorescence intensity

Q: For B2, which binding signal is on record?
A: 2240 fluorescence intensity

Q: With B3 as the binder, how does the binding signal read?
A: 1780 fluorescence intensity

Q: How did the binding signal turn out when B4 was run?
A: 2840 fluorescence intensity

Q: Which binding signal does the source give for B5 here?
A: 2150 fluorescence intensity
